The record followed here is the nanobody polyreactivity screen of Harvey et al. (2022).

This series is described as follows: yeast display, Sf9 membrane polyspecificity reagent, FACS + sequencing; frameworks hold sequencing errors. An outline of the steps:
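Galactose-induced (36–48 hours) yeast carrying a synthetic nanobody display library were exposed to 10% biotinylated, detergent-solubilized Sf9 membrane reagent at 4 °C for 1 hour. FACS followed streptavidin microbead enrichment, using low and high (top ~1%) gates for expression (anti-HA) and reagent binding (streptavidin). Colony PCR, MiSeq 2 × 250 sequencing and CDR-length filtering followed. Labels for polyreactivity reflect the gate of origin.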
“QVQLVESGGGLVQAGGSLRLSCAASGSIFFYNTMGWYRQAPGKERELVAAISASGGRTYYADSVKGRFTISRDNAKNTVYLQMISLKPEDTAVYYCAVRVPYRGYTRYDYWGQGTQVTVSS”: the “polyreactivity (PSR sort gate)” value was “high polyreactivity”.

As to “QVQLVESGGGLVQAGGSLRLSCAASGSIFFYNTMGWYRQAPRKERELVAAISSSGRTYYADSVKGRFTISRDNAKNTVYLQMNSLKPEDTAVYYCAKRTWRGYDYWGQGTQVTVSS”, the “polyreactivity (PSR sort gate)” value is “high polyreactivity”.

Turning to “QVQLVESGGGLVQAGGSLRLSCAASGSIFFYYAMGWYRPAPGKERELVAAITSGGTTNYADSVNGRFTISRDNAKNTVYLQMNSLKPEDTAVYYCAVAGPRYAFFEYDYWGQGTQVTVSS”, the “polyreactivity (PSR sort gate)” value was “low polyreactivity”.

Turning to “QVQLVESGGGLVQAGGSLRLSCAASGSIFFYYAMGWYRQAPGKERELVAAINSDGSTNYADSVKGRFTISRDNAKNTVYLQMNSVKPEDTAVYYCAADYVYYYHEYDYWGQGTQVTVSS”, the “polyreactivity (PSR sort gate)” value is listed as “low polyreactivity”.

On to “QVQLVESGGGLVQAGGSLRLSCAASGSIFFYYAMGWYRQAPGKERELVAAINWTGGRTYYADSVKGRFTISRDNAKNTVYLQMNSLKPEDTAVYYWAAEYYGQHDTYEYWGQGTQVTVSS”, for which the “polyreactivity (PSR sort gate)” value was “high polyreactivity”.

On to “QVQLVESGGGLVQAGGSLRLSCAASGSIFFYYAMGWYRQAPGKERELVAAITGSGGSTYYADSVKGRFTISRDNAKNTVYLQMNSLKPEDTAVYSCAADRTVRAVYYGYGYWGQGTQVTVSS”, for which the “polyreactivity (PSR sort gate)” value was “low polyreactivity”.

In the case of “QVQLVESGGGLVQAGGSLRLSCAASGSIFGANTMGWYRQAPGKERELVAAISSGGNTYYADSVKGRFTISRDNAKNTVYLQMNSLKPEDTAVYYCNAQTRYRYQYGYLGGTGYNYWGQGTQVTVSS”, the “polyreactivity (PSR sort gate)” value is “low polyreactivity”.

Regarding “QVQLVESGGGLVQAGGSLRLSCAASGSIFGANTMGWYRQAPGKERELVAGITSGARTYYADSVKGRFTISRDNAKNTVYLQMNSLKPEDTAVYYCAAQYAWRRYGYWGQGTQVTVSS”, the “polyreactivity (PSR sort gate)” value is reported as “high polyreactivity”.

Regarding “QVQLVESGGGLVQAGGSLRLSCAASGSIFGAYAMGWYRQAPGKERELVAAISSSVDRTYYADSVKGRFTISRDNAKNTVYLQMNSLKPEDTAVYYCAARWGTRDRTKYYYWGQGTQVTVSS”, the “polyreactivity (PSR sort gate)” value is on record as “high polyreactivity”.

Turning to “QVQLVESGGGLVQAGGSLRLSCAASGSIFGDNAMGRYRQAPGKERELVAVISSSGSTYYADSVKGRFTISRDTAMNTVYLQMNSLKAEDTAVYYCNAYEFDWYEEYYYWGQGTQVTVSS”, the “polyreactivity (PSR sort gate)” value is given as “low polyreactivity”.

In the case of “QVQLVESGGGLVQAGGSLRLSCAASGSIFGDNAMGWYRQAPGKERELVAAISGSTGSTNYADSVKGRFTISRDNAKNTVYLQMNSLKPEDTAVYYCNVGGLEYFVFKGVSVPDDYWGQGTQVTVSS”, the “polyreactivity (PSR sort gate)” value is given as “low polyreactivity”.

With “QVQLVESGGGLVQAGGSLRLSCAASGSIFGDNAMGWYRQAPGKERELVASITWSGGSTFYADSVKGRFTISRDNAQITVYLQMNSLKPEDTAVYYCAADTAEYLYDMDYWGQGTQVTVSS”, the “polyreactivity (PSR sort gate)” value was “low polyreactivity”.

On to “QVQLVESGGGLVQAGGSLRLSCAASGSIFGDYAMGWSSQAPGKEGELVAAISRGDGTYYADSVKGRFTISRDNAKNTVYLQMNSLKPEDTAVYYCNAGGRYHAPSGDFWGQGSQVTVSS”, for which the “polyreactivity (PSR sort gate)” value is “low polyreactivity”.

Turning to “QVQLVESGGGLVQAGGSLRLSCAASGSIFGDYAMGWYRQAPGKEREFVAGITRRGGRTYYADSVKGRFTISRDNAKNTVYLQMHSLKPEDTAVYYCNAVYSSSLRSKYDYWGQGTQVTVSS”, the “polyreactivity (PSR sort gate)” value is “high polyreactivity”.

With “QVQLVESGGGLVQAGGSLRLSCAASGSIFGDYAMGWYRQAPGKERELVAGITQSGSSTYYADSVKGRFTISRDNAKNTVYLQMNSLKPEDTAVYYCNKDWGPGPNEFDYWGQGTQVTVSS”, the “polyreactivity (PSR sort gate)” value is “low polyreactivity”.

Regarding “QVQLVESGGGLVQAGGSLRLSCAASGSIFGENAMGWYRQAPGKERELVAAITSGGSTDYADSVKGRFTISRDNAKNTVYLQMNSLKPEDTAVYYCAASGRVGPGYWYDSWGQGTQVTVSS”, the “polyreactivity (PSR sort gate)” value is reported as “low polyreactivity”.

Take “QVQLVESGGGLVQAGGSLRLSCAASGSIFGEYVRGWYREAPGKERELVADISWRDGDTYYADSEKGRFTISRDNAKNTVYLQMNSLKPEDTAVYYCAADVIVPESYGYWPLSYYYWGQGTQVTVSS”: the “polyreactivity (PSR sort gate)” value is given as “low polyreactivity”.

On to “QVQLVESGGGLVQAGGSLRLSCAASGSIFGFNALGWYRQAPGKERELVASITWSGSSTYYADSVKGRFTISRDNAKNTVYLQMNSLKPEDTAVYYCAKEFVHTHFYLWHVFKYGYWGQGTQVTVSS”, for which the “polyreactivity (PSR sort gate)” value is “low polyreactivity”.

For the sequence “QVQLVESGGGLVQAGGSLRLSCAASGSIFGFNTMGWYRQAPGKEMELVATINWSGGSTYYADSVKGRFTISRDNAKNTVYLQMNSLKPEDTAVYYCNAGPFSGRLFTTYASWGRYDYWGQGTQVTVSS”, the “polyreactivity (PSR sort gate)” value is reported as “low polyreactivity”.

Take “QVQLVESGGGLVQAGGSLRLSCAASGSIFGFYMGWYRQAPGKERELVAAISGSGGNTYYADSVKGRFTISRDNAKNTVYLQMNSLKPEDTAVYYCAVRYPGSRYLISKNGYWGQGTQVTVSS”: the “polyreactivity (PSR sort gate)” value is recorded as “high polyreactivity”.

In the case of “QVQLVESGGGLVQAGGSLRLSCAASGSIFGGNAMGWYRQAPGKEREFVARITKRGGSTDYADSVKGRFTISRDNAKNTVYLQMNSLKPEDTAVYYCATGWTSKVHYRYGYWGQGTQVTVSS”, the “polyreactivity (PSR sort gate)” value was “high polyreactivity”.

Turning to “QVQLVESGGGLVQAGGSLRLSCAASGSIFGGNAMGWYRQAPGKERELVAAITYSGGSTYYADSVKGRFTISRDNAKNTVYLQMNSLKPEDTAVYYCAASASVRGGGADQYVIAFDYWGQGTQVTVSS”, the “polyreactivity (PSR sort gate)” value is “low polyreactivity”.

Take “QVQLVESGGGLVQAGGSLRLSCAASGSIFGGNAMGWYRQAPGKERELVATITVRGGSTYYADSVKGRFTISRDNAKHTVYLQMNSLKPEDTAVYYCAARGGYLLPKYDYWGQGTQVTVSS”: the “polyreactivity (PSR sort gate)” value is reported as “low polyreactivity”.

Regarding “QVQLVESGGGLVQAGGSLRLSCAASGSIFGGNDMGWYRQAPGKERELVAAITSSGGSTYYADSVKGRFTISRDNAKNTVYLQMNSLKPEDTAVYYCYADYYGPYRDYGYWGQGTQVTVSS”, the “polyreactivity (PSR sort gate)” value is reported as “low polyreactivity”.

Consider “QVQLVESGGGLVQAGGSLRLSCAASGSIFGGYAMGWYRQAPGKEGELVAAISWSSSSTYYADSVKGRFTMSRDNAKNTVYLQMNSLKPEDTAVYYCATGIYPQTSDYDYWGQGTQVTVSS”, for which the “polyreactivity (PSR sort gate)” value is “low polyreactivity”.

“QVQLVESGGGLVQAGGSLRLSCAASGSIFGGYAMGWYRQAPGKERELVAAITWGGGSTYYADSVKGRFTISRDNAKNTVYLQMNSLKPEDTAVYYCAADRSWYDWEDDYWGQGTQVTVSS”: the “polyreactivity (PSR sort gate)” value is on record as “low polyreactivity”.

Turning to “QVQLVESGGGLVQAGGSLRLSCAASGSIFGGYAMGWYRQAPGKERELVARIRGSTGSTYYADSVKGRFTISRDNAKNTVYFQMNSLKPEDTAVYYCNARYKYYRGSGMDSWGQGTQVTVSS”, the “polyreactivity (PSR sort gate)” value is given as “high polyreactivity”.

“QVQLVESGGGLVQAGGSLRLSCAASGSIFGGYAMGWYRQAPGKERELVATINLGGGSTYADSVKGRFTISRDNAKNTVYLQMNSLKPEDTAVYYCAADVANSIYDYWGQGTQVTVSS”: the “polyreactivity (PSR sort gate)” value is “low polyreactivity”.

“QVQLVESGGGLVQAGGSLRLSCAASGSIFGGYAMGWYRQAPGKERELVATSYADSVKGRFTISRDNAKNTVYLQMNSLKPEDTAVYYCAADPPLEGGHGYNYWGQGTQVTVSS”: the “polyreactivity (PSR sort gate)” value is reported as “low polyreactivity”.

For the sequence “QVQLVESGGGLVQAGGSLRLSCAASGSIFGGYGLGWYRQAPGKERELVAASTSGSSTYYADSVKGRFTISRDNAKNTVYFPMNSLKPEDTAVSYFAARPFPHSAYEGDYWGRGTQVTVSS”, the “polyreactivity (PSR sort gate)” value is reported as “low polyreactivity”.

As for “QVQLVESGGGLVQAGGSLRLSCAASGSIFGGYTKGWYRQAPWKERELVAAISRRGGNTYYADSVKGRFTISRDNAQITVYLQMNSLKPEDTAVYYCAVLWPSARIPVKLDYWGQGTQVTVSS”, the “polyreactivity (PSR sort gate)” value is “high polyreactivity”.

Turning to “QVQLVESGGGLVQAGGSLRLSCAASGSIFGHNAMGWYRQAPGKERELVAAITSTGGSTYYADSVKGRFTISRDNAKNTVYLQMNSLKPEDTAVYYCAKGWYAGYPYDYWGQGTQVTVSS”, the “polyreactivity (PSR sort gate)” value is given as “low polyreactivity”.

In the case of “QVQLVESGGGLVQAGGSLRLSCAASGSIFGINAMGWYRQAPGKERELVAGISSRGGSTYYADSVKGRFTISRDNAKNTVYLQMNSLKPEDTAVYYCAKRYGRRYGRLHDYWGQGTQVTVSS”, the “polyreactivity (PSR sort gate)” value is recorded as “high polyreactivity”.

With “QVQLVESGGGLVQAGGSLRLSCAASGSIFGINVMGWYRHAPGKDREFVAAITSGTSTYYADSVKGRFTISRDNAKNSVYLQMNSLKPEDTAVYYCAALWSSRFVVHPQWYDYWGQGTQVTVSS”, the “polyreactivity (PSR sort gate)” value is “low polyreactivity”.

“QVQLVESGGGLVQAGGSLRLSCAASGSIFGINVMGWYRQAPGKERELVAAITSGTSTYYADSVKGLFTISRDNANNTVYLQMNSLKPEDTAVYYCAALWSSRFVVHPQWYDYWGQGTQVTVSS”: the “polyreactivity (PSR sort gate)” value was “low polyreactivity”.

For the sequence “QVQLVESGGGLVQAGGSLRLSCAASGSIFGIYAMGWYRQAPGKERELVAAISRGGSTYYADSVKGRFTISRDNAKNTVYLQMNSLKPEDTAVYYCNAKLIVTPGRGDYWGQGTQVTVSS”, the “polyreactivity (PSR sort gate)” value is “high polyreactivity”.

For “QVQLVESGGGLVQAGGSLRLSCAASGSIFGIYTMGWYRQAPGKERELVAAINSGGSTNYADSVKGRFTISRDNAKNTVYLQMNSLKPEDTAVYYCNAYIHPPGPRVYSREYDYWGHGTQVTVSS”, the “polyreactivity (PSR sort gate)” value is recorded as “low polyreactivity”.

For the sequence “QVQLVESGGGLVQAGGSLRLSCAASGSIFGIYVMGWYRQAPGKERELVAAISDGGSTYYADSVKGRFTISRDNAKNTVYLQMNSLKPEDTAVYYCAAEVHGWYSYYYWGQGTQVTVSS”, the “polyreactivity (PSR sort gate)” value is “high polyreactivity”.

Regarding “QVQLVESGGGLVQAGGSLRLSCAASGSIFGKNVMGWYRQAPGKDRELVAAITSGASTYYADSVKGRFTISRDNAKNTDYLQMNSLKPDDTAVYYCAARRWRKYYSGYNYWGHGTQVTVSS”, the “polyreactivity (PSR sort gate)” value was “high polyreactivity”.

In the case of “QVQLVESGGGLVQAGGSLRLSCAASGSIFGKYAMGWYRQAPGKERELVAAITWSGGSTRYADSVKGRFTISRDNAKNTVYLQMNSLKPEDTAVYYCAAPSTESKYYYWGQGTQVTVSS”, the “polyreactivity (PSR sort gate)” value was “high polyreactivity”.

In the case of “QVQLVESGGGLVQAGGSLRLSCAASGSIFGLNAMGWSRPAPGKERELVAAISGGSTNYADSVKGRFTISRDNAKNTVYLQMNSLKPEDTAVYYCAARARRRYYYWGQGTQVTVSS”, the “polyreactivity (PSR sort gate)” value is reported as “high polyreactivity”.
